Experimental data reported in paper PMC10314698.

Molecular target: soluble BCMA (B-cell maturation antigen) (UniProt Q02223)
Experiment: SPR

Chain of soluble BCMA (B-cell maturation antigen) (Q02223 1-54): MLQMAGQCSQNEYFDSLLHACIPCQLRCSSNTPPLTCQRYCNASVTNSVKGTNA

Question: With LCAR-B38M (Nanjing_GSI5022_Dual_VHH) as the substance, how does the Kd read?
Answer: 2.89 nM

Question: And the koff?
Answer: 0.0162 s⁻¹
